The values below come from article PMC4889959 (Nucleic Acids Research, 2016).

To fix the notation:
B1: SLX4BTB wild type, yeast two-hybrid fusion [human] / itself (parent complex)
chain: QDKHPDRGGRTLLSLGLLVADFGAMVNNPHLSDVQFQTDSGEVLYAHKFVLYARCPLLIQYVNNEGFSAVEDGVLTQRVLLGDVSTEAARTFLHYLYTADTGLPPGLSSELSSLAHRFGVSELVHLCEQVPIATDS

The variants in the first experiment derive from B1. The experiment can be described thus: yeast two-hybrid β-galactosidase assay; ONPG as substrate; SLX4BTB-F708R-AD + SLX4BTB-F708R-BD; parent: 710; read off a plot.
For the variant chain 1 F49R, the response is approximately 3 OD420 reading.

Variants of B1 are the subject of the next experiment. The experiment is described as follows: yeast two-hybrid β-galactosidase assay; ONPG as substrate; SLX4BTB-F681R-F708R-AD + SLX4BTB-F681R-F708R-BD; parent: 710; read off a plot.
As for chain 1 F22R, chain 1 F49R, the response is approximately 2.5 OD420 reading.
